# Laboratory results reported in US20240150466A1 (DYNAMICURE BIOTECHNOLOGY, published 2024).
# Like-named read-outs stand apart in the source and are kept apart here.
# T1: His-tagged human IGFBP7 recombinant protein (human, UniProt Q16270 27-282)
# T1 construct: not shown: His tag
# T1 sequence: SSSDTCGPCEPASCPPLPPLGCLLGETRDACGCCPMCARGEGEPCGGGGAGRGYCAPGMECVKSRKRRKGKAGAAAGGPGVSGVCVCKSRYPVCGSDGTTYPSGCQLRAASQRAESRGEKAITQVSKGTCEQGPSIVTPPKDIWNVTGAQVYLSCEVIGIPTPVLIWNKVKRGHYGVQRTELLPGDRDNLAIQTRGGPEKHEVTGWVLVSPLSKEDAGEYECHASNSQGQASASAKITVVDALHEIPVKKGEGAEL
# T2: human IGFBP7 recombinant protein (UniProt Q16270 27-282, biotinylated with EZ-LINK NHS-PEG4 biotin in the BLI assays (sites not given))
# T2 chain: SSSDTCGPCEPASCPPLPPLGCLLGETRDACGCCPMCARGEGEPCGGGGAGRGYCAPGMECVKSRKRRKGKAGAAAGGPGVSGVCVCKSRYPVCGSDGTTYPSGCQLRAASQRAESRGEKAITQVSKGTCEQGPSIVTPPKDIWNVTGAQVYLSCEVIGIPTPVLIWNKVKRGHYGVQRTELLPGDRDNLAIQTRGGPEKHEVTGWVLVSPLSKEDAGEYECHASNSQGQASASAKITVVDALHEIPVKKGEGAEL
# T3: mouse IGFBP7 recombinant protein (mouse, UniProt Q61581 26-281, biotinylated with EZ-LINK NHS-PEG4 biotin in the BLI assays (sites not given))
# T3 chain: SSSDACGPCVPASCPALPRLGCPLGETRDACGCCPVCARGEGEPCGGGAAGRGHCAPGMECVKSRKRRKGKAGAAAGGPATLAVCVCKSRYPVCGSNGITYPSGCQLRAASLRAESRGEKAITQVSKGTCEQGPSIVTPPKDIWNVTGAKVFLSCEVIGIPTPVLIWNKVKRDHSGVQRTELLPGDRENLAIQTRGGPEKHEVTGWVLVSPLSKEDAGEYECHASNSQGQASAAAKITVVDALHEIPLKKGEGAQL
# T4: human IGFBP7 recombinant protein (human, UniProt Q16270 27-282, biotinylated with EZ-LINK NHS-PEG4 biotin in the BLI assays (sites not given))
# T4 construct: Soluble protein used for ELISA coating and, biotinylated, on streptavidin biosensors (Octet); also called hIGFBP7; biotinylated IGFBP7 protein
# T4 sequence: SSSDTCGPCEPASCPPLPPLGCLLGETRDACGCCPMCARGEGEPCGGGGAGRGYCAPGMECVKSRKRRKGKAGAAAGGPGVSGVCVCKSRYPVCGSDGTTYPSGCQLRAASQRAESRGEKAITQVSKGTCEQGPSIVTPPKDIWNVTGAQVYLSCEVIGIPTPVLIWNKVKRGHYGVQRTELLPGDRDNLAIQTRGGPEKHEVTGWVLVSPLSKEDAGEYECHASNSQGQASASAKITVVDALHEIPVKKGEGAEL
# T5: cynomolgus IGFBP7 recombinant protein (cynomolgus)
# T5 chain: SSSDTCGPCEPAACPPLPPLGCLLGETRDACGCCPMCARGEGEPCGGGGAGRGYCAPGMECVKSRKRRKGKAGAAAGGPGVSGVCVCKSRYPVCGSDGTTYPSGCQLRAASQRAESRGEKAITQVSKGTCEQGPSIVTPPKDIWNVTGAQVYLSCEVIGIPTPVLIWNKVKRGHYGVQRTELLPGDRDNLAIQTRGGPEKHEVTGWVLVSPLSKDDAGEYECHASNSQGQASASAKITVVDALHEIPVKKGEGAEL
# T6: mouse IGFBP7 recombinant protein (mouse, UniProt Q61581 26-281, limits assumed, biotinylated with EZ-LINK NHS-PEG4 biotin in the BLI assays (sites not given))
# T6 construct: Soluble protein in ELISA and BLI; also called mIGFBP7
# T6 sequence (looked up): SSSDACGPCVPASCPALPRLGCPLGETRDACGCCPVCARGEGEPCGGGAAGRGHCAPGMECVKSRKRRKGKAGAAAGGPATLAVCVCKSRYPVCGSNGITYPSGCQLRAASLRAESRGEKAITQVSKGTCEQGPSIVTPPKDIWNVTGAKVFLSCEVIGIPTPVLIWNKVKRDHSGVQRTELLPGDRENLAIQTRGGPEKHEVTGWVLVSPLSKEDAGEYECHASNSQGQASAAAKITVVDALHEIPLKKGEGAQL
# T7: mouse IGFBP7 displayed on cells (HEK293T or CHO-K1) (mouse, UniProt Q61581 26-281)
# T7 construct: whole, on cells;domain: CD80 transmembrane domain; also called mIGFBP7; mIGFBP7-HEK cells; not shown: linker; CD80 transmembrane domain
# T7 sequence (looked up): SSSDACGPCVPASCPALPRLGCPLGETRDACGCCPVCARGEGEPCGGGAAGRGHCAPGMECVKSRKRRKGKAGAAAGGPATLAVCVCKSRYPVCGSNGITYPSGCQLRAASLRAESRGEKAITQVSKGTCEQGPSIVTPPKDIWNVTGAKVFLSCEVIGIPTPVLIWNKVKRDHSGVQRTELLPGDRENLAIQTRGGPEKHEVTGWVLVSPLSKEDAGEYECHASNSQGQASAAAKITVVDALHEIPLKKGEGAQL
# T8: human IGFBP7 displayed on HEK293T cells (human, UniProt Q16270 27-282)
# T8 construct: domain: CD80 transmembrane domain; signal peptide stated as residues 1-26; also called hIGFBP7; hIGFBP7-HEK cells; not shown: linker; CD80 transmembrane domain
# T8 sequence: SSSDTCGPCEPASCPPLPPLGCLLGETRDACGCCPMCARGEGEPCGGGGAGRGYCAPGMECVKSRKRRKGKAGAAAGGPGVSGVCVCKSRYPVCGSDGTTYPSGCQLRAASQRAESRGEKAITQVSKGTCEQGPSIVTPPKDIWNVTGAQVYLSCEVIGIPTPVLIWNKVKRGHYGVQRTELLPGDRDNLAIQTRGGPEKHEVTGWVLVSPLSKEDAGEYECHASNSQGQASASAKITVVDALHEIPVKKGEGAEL
# Experiments:
# [1] = biological target: T1, His-tagged human IGFBP7 recombinant …; experiment: flow cytometry blockade assay: nanobody 50 ug/mL pre-incubated with His-tagged human IGFBP7 1 ug/mL, then human CD93 CHO cells (FIG. 14)
# Description: Anti-IGFBP7 nanobodies and nanobody-Fc fusions (50 μg/mL) generated in previous examples was incubated with His-tagged human IGFBP7 recombinant protein (1 μg/mL) for 30 minutes in 4° C. Human CD93 expressing CHO cells (1×10⁵ per well) were treated the mixture for 30 minutes at 4° C. Then the cells were washed with FACS buffer and incubated with anti-IGFBP7 monoclonal rabbit antibody (Sino Biological Inc, Catalog #13100-R003) at 1 μg/mL for 30 minutes in 4° C. After incubation, the cells were washed with FACS buffer and incubated with PE-conjugated anti-rabbit IgG antibody ([…]) for 30 minutes in 4° C. After washing with FACS buffer twice, the samples were analyzed and data acquired in NovoCyte Flow.
# [2] = biological target: T2, human IGFBP7 recombinant protein; experiment: BLI
# [3] = biological target: T3, mouse IGFBP7 recombinant protein; experiment: BLI
# [4] = biological target: T4, human IGFBP7 recombinant protein; experiment: BLI (Octet QKe), biotinylated IGFBP7 on streptavidin biosensors (FIG. 9)
# Description: (§1) The binding affinity of anti-IGFBP7 nanobody Fc-fusion constructs (e.g., VHH-Fc-fusion constructs) were determined with bio-layer interferometry (BLI) using Octet QKe (Fortebio). Human, mouse, and cynomolgus IGFBP7 were biotinylated using EZ-LINK NHS-PEG4 biotin (Thermo Fisher Scientific). Streptavidin biosensors (ForteBio) were used to load biotinylated IGFBP7 protein (300 seconds in 5 μg/mL). Baseline was stabilized for 60 seconds in 1× kinetics buffer (ForteBio) before anti-IGFBP7 Fc-fucion proteins (serial dilution) were allowed to associate for 300 seconds with captured hIGFBP7 or mIGFBP7. Then the sensors were dissociated in 1× kinetics buffer for 600 seconds. Data analysis was performed on ForteBio Data Analysis HT 11.1 software.
# [5] = biological target: T5, cynomolgus IGFBP7 recombinant protein; experiment: BLI
# [6] = biological target: T2, human IGFBP7 recombinant protein; experiment: BLI
# [7] = biological target: T3, mouse IGFBP7 recombinant protein; experiment: BLI
# [8] = biological target: T6, mouse IGFBP7 recombinant protein; experiment: BLI (Octet QKe), biotinylated IGFBP7 on streptavidin biosensors (FIG. 10)
# Description: as §1
# [9] = biological target: T7, mouse IGFBP7 displayed on cells …; experiment: FACS on mIGFBP7-expressing CHO-K1 cells (FIG. 5)
# [10] = biological target: T7, mouse IGFBP7 displayed on cells …; experiment: flow cytometry on mouse IGFBP7 displaying HEK293T cells, nanobody 10 ug/ml, APC anti-HIS detection
# Description: (§2) Human IGFBP7 and mouse IGFBP7 displaying HEK293T cells were detached by incubation with TrypLE reagents (Thermos Fisher), which preserves the integrity of IGFBP7 on the cell surface. Then the cells were incubated with anti-IGFBP7 nanobodies at 10 μg/ml for 30 minutes in 4° C. After washing by FACS buffer, the cells were incubated with APC conjugated anti-HIS antibodies (Biolegend) for 30 minutes in 4° C. After washing by FACS buffer twice, the samples were acquired in NovoCyte Flow Cytometer and analyzed by NovoExpress software.
# [11] = biological target: T8, human IGFBP7 displayed on HEK293T cells; experiment: flow cytometry on human IGFBP7 displaying HEK293T cells, nanobody 10 ug/ml, APC anti-HIS detection
# Description: as §2
# [12] = biological target: T4, human IGFBP7 recombinant protein; experiment: ELISA
# [13] = biological target: T6, mouse IGFBP7 recombinant protein; experiment: ELISA
# [14] = biological target: T2, human IGFBP7 recombinant protein; experiment: BLI
# [15] = biological target: T3, mouse IGFBP7 recombinant protein; experiment: BLI
binder,measurement,setting,value
"anti-IGFBP7 nanobody A03 (VHH, Llama nanobody expressed in E. coli as His6-tagged protein; also called A3; not shown: His6 tag) VHH: VQLQESGGGLVQAGGSLRLSCAASGTFSINTYLWYRQPPGKQREFVAAITSGGSINYADSVKGRFTISRDNAKKTVYLQMNSLKPEDTAVYVCNIKAHPNPWGFDNDYWGQGTQVTVSS",percent blocking of the CD93-IGFBP7 interaction,[1],≥ 50%
"anti-IGFBP7 nanobody A04 (VHH, Llama nanobody expressed in E. coli as His6-tagged protein; also called A4; A4 VHH; not shown: His6 tag) VHH: VQLQESGGGLVQPGGSLRLSCAASGTFTINTYLWYRQPPGKQREFVAAITRGGSINYADSVKGRFTISRDNAKKTVYLQMNSLKPEDTAVYVCNIKAHPNPWGFDNDYWGQGTQVTVSS",percent blocking of the CD93-IGFBP7 interaction,[1],≥ 50%
"A1-mIgG1 nanobody Fc-fusion (Fc fusion, VHH fused with mIgG1 Fc fragment, expressed in Expi293 cells; also called monospecific A1-mIgG1; not shown: mouse IgG1 Fc fragment (mIgG1 Fc)) VQLQESGGGLVQAGGSLRLSCAASGSLFAIDKWGWYRQVAGNERELVAWRYSPVSINYGDSVKGRFTVSGDSSRKRVYLQMNSLKPDDTAVYRCAAVISGAWYWGQGTQVTVSS",Kd,[2],3.82 nM
same,Kd,[3],25.8 nM
same,binding result,[4],binds
same,Kd,[5],3.19 nM
same,Kd,[6],3.82 nM
same,Kd,[7],25.8 nM
same,binding result,[8],binds
"anti-IGFBP7 nanobody Fc-fusion construct derived from A1 (Fc isotype not told) (Fc fusion, may be the same as A1-mIgG2a or A1-mIgG1; not shown: mouse Fc fragment, mIgG2a or mIgG1) VQLQESGGGLVQAGGSLRLSCAASGSLFAIDKWGWYRQVAGNERELVAWRYSPVSINYGDSVKGRFTVSGDSSRKRVYLQMNSLKPDDTAVYRCAAVISGAWYWGQGTQVTVSS",binding result,[9],binds
"anti-IGFBP7 nanobody A01 (VHH, Llama nanobody expressed in E. coli as His6-tagged protein; also called A1; A1 VHH; not shown: His6 tag) VHH: VQLQESGGGLVQAGGSLRLSCAASGSLFAIDKWGWYRQVAGNERELVAWRYSPVSINYGDSVKGRFTVSGDSSRKRVYLQMNSLKPDDTAVYRCAAVISGAWYWGQGTQVTVSS",binding result,[10],binds
same,binding result,[11],binds
same,binding result,[12],binds
same,binding result,[13],binds
"D4-mIgG2a nanobody Fc-fusion (Fc fusion, VHH fused with mIgG2a Fc fragment, expressed in Expi293 cells; also called monospecific D4-mIgG2a; not shown: mouse IgG2a Fc fragment (mIgG2a Fc)) VQLQESGGGLVQTGGSLRLSCAASGRSFTFSSYAMGWFRHAPGKEREFLTAITWSGDYTYYTDSVKGRSTISRDNAKNTVYLQLNNLKPEDTAVYYCAAKFSQVSAFFATVSEYEYWGQGTQVTVSS",Kd,[2],1.22 nM
same,Kd,[3],10.2 nM
same,binding result,[4],binds
same,Kd,[5],1.84 nM
same,Kd,[6],1.22 nM
same,Kd,[14],1.16 nM
same,Kd,[7],10.2 nM
same,binding result,[8],binds
same,Kd,[15],12.1 nM
"anti-IGFBP7 nanobody D04 (VHH, Llama nanobody expressed in E. coli as His6-tagged protein; also called D4; D4 VHH; not shown: His6 tag) VHH: VQLQESGGGLVQTGGSLRLSCAASGRSFTFSSYAMGWFRHAPGKEREFLTAITWSGDYTYYTDSVKGRSTISRDNAKNTVYLQLNNLKPEDTAVYYCAAKFSQVSAFFATVSEYEYWGQGTQVTVSS",binding result,[10],binds
same,binding result,[11],binds
same,binding result,[12],binds
same,binding result,[13],binds
